One test deals with T1, rhesus monkey PLD4 (rhesus monkey, UniProt Q96BZ4 1-506 (human entry)).
T1 construct: also called rhesus monkey PLD4 protein
T1 chain: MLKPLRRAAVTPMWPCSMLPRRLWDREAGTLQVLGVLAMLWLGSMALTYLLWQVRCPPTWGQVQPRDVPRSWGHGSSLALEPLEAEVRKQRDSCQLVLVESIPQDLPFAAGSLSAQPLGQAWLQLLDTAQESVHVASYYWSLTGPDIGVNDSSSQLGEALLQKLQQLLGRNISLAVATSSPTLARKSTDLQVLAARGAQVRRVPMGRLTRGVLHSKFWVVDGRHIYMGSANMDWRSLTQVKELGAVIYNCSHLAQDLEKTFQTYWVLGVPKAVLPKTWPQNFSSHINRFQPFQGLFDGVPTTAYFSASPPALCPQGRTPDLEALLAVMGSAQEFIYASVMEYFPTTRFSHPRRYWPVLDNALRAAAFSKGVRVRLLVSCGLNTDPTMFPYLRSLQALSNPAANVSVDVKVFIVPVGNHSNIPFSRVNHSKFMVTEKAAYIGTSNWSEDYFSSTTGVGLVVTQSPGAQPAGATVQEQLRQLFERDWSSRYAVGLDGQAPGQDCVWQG
In words: FACS on rhesus monkey PBMC, pDC population (FIG. 18-1, 18-2). The procedure: PBMC of rhesus monkey from the peripheral blood (10 mL; SHIN NIPPON BIOMEDICAL LABORATORIES, LTD.), was centrifuged with specific gravity using 96% Ficoll-Paque (trademark) PLUS (GE Healthcare company, Cat No. 17-1440-02). For FACS, 5×10⁵ of cells were used per sample. The cells were washed with FACS buffer cell, and then added with 10 μL of 10% cynomolgus monkey serum diluted with FACS buffer, and reacted at 4° C. for 20 minutes. The cells were washed with FACS buffer, and then added with 100 μL of the cell culture supernatant of each hybridoma and 10 μg/mL of mouse IgG2a, κ or mouse IgG1, κ, and reacted at 4° C. for 15 minutes. The cells were washed with FACS buffer, and then added with 1 μg/mL of APC-labeled anti-mouse IgG antibody, and reacted at 4° C. for 20 minutes. The cells were washed with FACS buffer, and then reacted with 25 μL of 10 fold dilution of FITC-labeled anti-Lineage 1 antibody, PE-labeled anti-CD123 antibody, and PcrCP-Cy5.5-labeled anti-HLA-DR antibody at 4° C. for 15 minutes. The cells were washed with FACS buffer, and then resuspended in 300 μL of FACS buffer, and analyzed with FACS calibur. The used hybridoma culture supernatant was specific to PLD4, and 10 kinds of 3B4, 5B7, 7B4, 8C11, 10C3, 11D10, 13D4, 13H11, 14C1, and 11G9.6, which bound well to CAL-1 cell or human pDC, were selected. As a result thereof, 5 kinds of the hybridoma cell culture supernatants, i.e., 5B7, 7B4, 13D4, 13H11, and 14C1 specifically bound to pDC cell population of cynomolgus monkey (Lineage-CD123+HLA-DR+) (FIG. 18).

The target of test [1] is T2, human PLD4 (phospholipase D4) protein (UniProt Q96BZ4 1-506).
T2 chain: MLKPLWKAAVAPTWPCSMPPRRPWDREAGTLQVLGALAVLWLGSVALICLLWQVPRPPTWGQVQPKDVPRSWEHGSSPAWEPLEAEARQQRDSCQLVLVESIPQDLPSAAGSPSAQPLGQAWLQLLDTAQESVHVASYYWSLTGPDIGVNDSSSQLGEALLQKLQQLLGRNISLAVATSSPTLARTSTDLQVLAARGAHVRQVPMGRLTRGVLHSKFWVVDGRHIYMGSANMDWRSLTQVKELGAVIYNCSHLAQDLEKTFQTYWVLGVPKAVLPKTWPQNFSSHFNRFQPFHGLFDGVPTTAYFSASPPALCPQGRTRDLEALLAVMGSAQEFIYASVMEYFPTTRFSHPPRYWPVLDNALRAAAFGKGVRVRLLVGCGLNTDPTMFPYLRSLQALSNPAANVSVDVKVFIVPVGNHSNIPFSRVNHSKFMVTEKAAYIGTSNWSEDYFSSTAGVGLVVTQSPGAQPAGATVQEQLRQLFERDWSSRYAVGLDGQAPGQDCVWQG
In words: binding to human PLD4-CT125 stable cells; apparent Kd.

The target of test [2] is T3, human PLD4 (phospholipase D4) protein (human, UniProt Q96BZ4 1-506).
T3 construct: Type II transmembrane protein, 506 a.a; also called hPLD4; HuPLD4
T3 sequence: T2 chain
The test can be described thus: FACS titration (0.001 to 30 µg/mL) of purified antibody on human PLD4-CT125 cells, positive cell frequency fitted with GraphPad Prism (FIG. 19). On the procedure: For binding ability of the purified antibody, human PLD4-CT125 expression stable cell strain was reacted to nearly 100% of the positive staining rate at low concentration to high concentration (0.001 μg/mL to 30 μg/mL) of purified PLD4 antibody concentration. The frequency of staining positive cell and the antibody were data-analyzed using Graph Pad Prism version 5 software, and the dissociation constant molar concentration (Kd value) was computed in nM unit.

For the next test, the target named is T4, cynomolgus monkey PLD4 (cynomolgus monkey, UniProt Q96BZ4 1-506 (human entry)).
T4 construct: also called cynomolgus monkey PLD4 protein; cyno PLD4
T4 chain: T1 chain with C56R, R66K, L78P
In words: FACS on cynomolgus monkey PLD4-CT125 cells (FIG. 16).

Where a chain is given by its changes, count along the chain named. Bounds are passed on as bounds.

B1: anti-PLD4 mouse 5B7 antibody (antibody, V domains shown)
VH: EVQLQQSGPELVKPGASVKISCKASGYTFTDYNLHWVKQSHGKSLEWIGYIYPYNGNTGYNQKFKRKATLTVDNSSGTVYMELRSLTSEDSAVYYCARGGIYDDYYDYAIDYWGQGTSVTVSS
VL: DIQMTQSPASLSVSVGETVAITCRASENIYSHIAWYQQKEGKSPQRLVYGATNLAHGVPSRFSGSGSGTQYSLKINSLQSEDFGSYYCQHFWGTPWTFGGGTKLEIKR
notes: Tested as hybridoma culture supernatant and as protein A purified antibody; also called mp5B7 (hybridoma)
Consider B1, for which the binding result in the test with rhesus monkey PLD4 and with cynomolgus monkey PLD4 was “binds” in each case. Also, the Kd in test [1] was 0.056 nM; in test [2], at most 1 nM.

B2: anti-PLD4 mouse 7B4 antibody (antibody, mouse IgG2b, V domains shown)
VH: B1 VH
VL: B1 VL
notes: Tested as hybridoma culture supernatant and as purified antibody; also called mp7B4 (hybridoma)
For the molecule B2, the binding result with rhesus monkey PLD4 and in the test with cynomolgus monkey PLD4 was “binds” each time. The Kd in test [1] was 0.087 nM; in test [2], at most 1 nM.

B3: anti-PLD4 mouse 13H11 antibody (antibody, mouse IgG2b, V domains shown)
VH: DVQLQESGPGLVKPSQSLSLTCSVTGYSISSHYYWSWIRQFPGNRLEWMGYISYDGSNNYNPSLKNRISITRDTSKNQFFLKLNSVTTEDTATYNCAREGPLYYGNPYWYFDVWGAGTTVTVSS
VL: DIQMTQTTSSLSASLGGSVTISCRASQDIDNYLNWYQQKPDGTVKLLIYYTSRLHSGVPSRFSGSGSGTDYSLTISNLEQEDIATYFCQQFNTLPRTFGGGTKLEIKR
notes: Tested as hybridoma culture supernatant and as purified antibody; also called mp13H11 (hybridoma)
B3: the binding result with rhesus monkey PLD4 and with cynomolgus monkey PLD4 was “binds” throughout. The Kd was 0.057 nM in test [1] and at most 1 nM in test [2].

B4: anti-PLD4 mouse 14C1 antibody (antibody, mouse IgG1, V domains shown)
VH: B3 VH
VL: B3 VL
notes: Tested as hybridoma culture supernatant and as purified antibody
As for B4, the binding result with rhesus monkey PLD4 and with cynomolgus monkey PLD4 was “binds” in each case. Further, the Kd in test [1] was 3.73 nM; in test [2], above 1 nM.

B5: anti-PLD4 mouse 13D4 antibody (antibody, mouse IgG2b, V domains shown)
VH: B3 VH with S30T, S36T, R45K
VL: B3 VL with G17D, S18R, I83V
notes: Tested as hybridoma culture supernatant and as purified antibody; also called mp13D4 (hybridoma)
For B5, the binding result with rhesus monkey PLD4 and with cynomolgus monkey PLD4 was “binds” in each case. The Kd in test [1] is 0.045 nM; in test [2], at most 1 nM.
